Measurements: PMC3835166 (Journal of molecular biology, 2012)

B1: raver1 RRM1-3 domains (residues 39-321) (domain or fragment, human, UniProt Q8IY67 39-321, looked up)
chain: LDPEEIRKRLEHTERQFRNRRKILIRGLPGDVTNQEVHDLLSDYELKYCFVDKYKGTAFVTLLNGEQAEAAINAFHQSRLRERELSVQLQPTDALLCVANLPPSLTQQQFEELVRPFGSLERCFLVYSERTGQSKGYGFAEYMKKDSAARAKSDLLGKPLGPRTLYVHWTDAGQLTPALLHSRCLCVDRLPPGFNDVDALCRALSAVHSPTFCQLACGQDGQLKGFAVLEYETAEMAEEAQQQADGLSLGGSHLRVSFCAPGPPGRSMLAALIAAQATALNRG
B2: MVt (metavinculin tail domain, residues 856-1134) (domain or fragment, human, UniProt P18206 856-1134, looked up)
chain: DELAPPKPPLPEGEVPPPRPPPPEEKDEEFPEQKAGEVINQPMMMAARQLHDEARKWSSKPGIPAAEVGIGVVAEADAADAAGFPVPPDMEDDYEPELLLMPSNQPVNQPILAAAQSLHREATKWSSKGNDIIAAAKRMALLMAEMSRLVRGGSGTKRALIQCAKDIAKASDEVTRLAKEVAKQCTDKRIRTNLLQVCERIPTISTQLKILSTVKATMLGRTNISDEESEQATEMLVHNAQNLMQSVKETVREAEAASIKIRTDAGFTLRWVRKTPWYQ

Columns and labels:
[1] = target: T1, full-length human metavinculin (human, UniProt P18206 1-1134); test: native gel or EMSA
T1 sequence (looked up): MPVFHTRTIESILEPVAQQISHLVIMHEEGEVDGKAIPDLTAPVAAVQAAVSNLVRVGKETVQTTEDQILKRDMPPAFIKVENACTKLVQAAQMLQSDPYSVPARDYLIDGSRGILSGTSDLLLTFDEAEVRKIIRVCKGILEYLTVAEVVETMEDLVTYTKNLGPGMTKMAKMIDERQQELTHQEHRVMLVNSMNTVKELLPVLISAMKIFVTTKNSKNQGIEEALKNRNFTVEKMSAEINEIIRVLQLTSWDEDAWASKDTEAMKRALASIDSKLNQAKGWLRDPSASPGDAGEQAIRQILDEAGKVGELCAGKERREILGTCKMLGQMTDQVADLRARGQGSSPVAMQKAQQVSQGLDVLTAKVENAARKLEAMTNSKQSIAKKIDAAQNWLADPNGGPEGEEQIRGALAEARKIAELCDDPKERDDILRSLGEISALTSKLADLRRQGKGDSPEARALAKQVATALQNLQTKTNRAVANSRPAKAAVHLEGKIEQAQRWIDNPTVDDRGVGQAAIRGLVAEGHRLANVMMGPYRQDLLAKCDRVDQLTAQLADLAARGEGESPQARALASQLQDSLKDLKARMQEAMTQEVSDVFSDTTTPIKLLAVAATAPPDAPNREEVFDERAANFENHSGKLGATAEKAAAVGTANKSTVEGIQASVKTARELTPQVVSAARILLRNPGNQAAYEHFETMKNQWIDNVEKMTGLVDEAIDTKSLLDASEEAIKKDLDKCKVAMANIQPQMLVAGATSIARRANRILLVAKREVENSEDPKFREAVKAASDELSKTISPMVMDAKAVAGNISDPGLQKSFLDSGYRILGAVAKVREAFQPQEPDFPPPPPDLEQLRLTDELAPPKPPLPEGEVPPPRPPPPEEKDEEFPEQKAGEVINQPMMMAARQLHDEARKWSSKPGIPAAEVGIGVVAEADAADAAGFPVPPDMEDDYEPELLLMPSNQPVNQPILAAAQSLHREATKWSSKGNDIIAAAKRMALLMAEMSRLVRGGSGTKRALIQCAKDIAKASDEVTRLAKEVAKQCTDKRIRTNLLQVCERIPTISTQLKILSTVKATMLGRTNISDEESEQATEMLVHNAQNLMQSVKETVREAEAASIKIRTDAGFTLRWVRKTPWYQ

raver1 RRM1-3 = target: T2, raver1 RRM1-3 (UniProt Q8IY67 39-321); test: EMSA
T2 sequence: B1 chain

raver1 RRM2-RRM3 = target: T3, raver1 RRM2-RRM3 (UniProt Q8IY67 129-321); test: EMSA
T3 sequence: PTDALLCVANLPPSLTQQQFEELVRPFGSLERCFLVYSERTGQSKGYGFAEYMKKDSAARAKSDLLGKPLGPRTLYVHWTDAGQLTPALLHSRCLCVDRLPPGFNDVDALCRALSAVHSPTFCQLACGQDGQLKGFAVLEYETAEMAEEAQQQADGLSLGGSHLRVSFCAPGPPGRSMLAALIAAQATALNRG

[2] = target: metavinculin tail MVt;raver1 RRM1-3 (Homo sapiens;Homo sapiens?, UniProt P18206;Q8IY67 856-1134;39-321, |); test: EMSA
[3] = target: B1; test: native gel or EMSA

Question: Does B1 bind [1]?
Answer: binds

Question: Does UCAUGCAGUCUG (ssRNA) [vinculin RNA 3089-3100] bind (raver1 RRM1-3)?
Answer: binds

Question: Does UCAUGCAGUCUG (ssRNA) [vinculin RNA 3089-3100] bind (raver1 RRM2-RRM3)?
Answer: no binding

Question: Does UCAUGCAGUCUG (ssRNA) [vinculin RNA 3089-3100] bind [2]?
Answer: binds

Question: Does B2 bind [3]?
Answer: binds
